Here are results for 1 molecule from patent US20250066499A1 (SUNSHINE GUOJIAN PHARMACEUTICAL SHANGHAI, published 2025).

Common to all, as to test: ELISA, biotinylated antigen on streptavidin plate
One test concerns the target T1, CD73-ND-K182A (human, UniProt P21589 27-317).
T1 construct: Alanine mutant of CD73-ND
T1 sequence: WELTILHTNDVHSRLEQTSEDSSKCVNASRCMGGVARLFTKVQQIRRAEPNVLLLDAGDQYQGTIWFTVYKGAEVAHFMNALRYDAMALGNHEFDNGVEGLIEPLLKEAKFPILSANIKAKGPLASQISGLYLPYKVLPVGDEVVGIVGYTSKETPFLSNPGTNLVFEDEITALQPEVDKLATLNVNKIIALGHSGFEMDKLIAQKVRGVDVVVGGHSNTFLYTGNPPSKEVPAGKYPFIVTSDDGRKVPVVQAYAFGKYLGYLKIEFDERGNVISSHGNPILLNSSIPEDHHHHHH
On the procedure:
(§1) The ELISA plates were coated with SA protein diluted to 1.5 μg/mL in coating buffer (50 mM carbonate coating buffer, pH 9.6) and incubated overnight at 4° C. The supernatant was discarded, and the plates were washed three times with PBST. Then, 5% skimmed milk powder prepared with PBS was added for blocking and the plates were incubated for 2 h at 37° C. After washing the plates once with PBST, CD73-biotin protein (prepared by biotinylating CD73-His protein according to the EZ-Link NHS-Biotin Reagent instructions) was diluted to 0.5 μg/mL and added at 100 μL/well for incubation at room temperature for 1 h. The plates were washed three times with PBST, and the prepared murine-derived monoclonal antibodies against human CD73 were serially diluted with 1% BSA buffer prepared with PBST and added to the ELISA plates at 100 μl/well. The plates were incubated at 37° C. for 1 h. After washing the plates three times with PBST, HRP-labeled goat anti-mouse IgG secondary antibody was added and the plates were incubated for 30 min at 37° C. After washing the plates three times with PBST, the residual droplets were patted dry on absorbent paper as much as possible. Then, 100 μl of TMB color developing solution was added to each well, and the plates were incubated in the dark at room temperature for 5 min for color development. Subsequently, 50 μl of 2M H₂SO₄ stop solution was added to each well to terminate the substrate reaction. The OD values were read at 450 nm using a multimode microplate reader to analyze the binding ability of the tested antibodies to the target antigen human CD73-His.
(§2) Referring to the experimental method in Example 3, the affinity of 48A11-HuV33 for various mutant proteins of CD73-ND was determined. The SA protein was diluted to 1 μg/mL for coating the ELISA plates, and the biotinylated CD73 protein (CD73-biotin) was used at a concentration of 0.1 μg/mL.

The target of another test is T2, CD73-ND-N185A (human, UniProt P21589 27-317).
T2 construct: Alanine mutant of CD73-ND
T2 sequence: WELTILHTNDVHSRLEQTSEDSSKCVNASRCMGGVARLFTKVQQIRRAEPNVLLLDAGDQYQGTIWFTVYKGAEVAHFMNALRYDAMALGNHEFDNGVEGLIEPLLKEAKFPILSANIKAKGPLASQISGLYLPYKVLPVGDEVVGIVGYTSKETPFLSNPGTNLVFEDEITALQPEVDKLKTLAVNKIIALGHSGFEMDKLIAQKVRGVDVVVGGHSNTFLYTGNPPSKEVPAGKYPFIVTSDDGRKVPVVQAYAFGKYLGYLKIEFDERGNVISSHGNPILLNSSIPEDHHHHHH
On the procedure: as §1, §2

The target of the next test is T3, CD73-ND-his (human, UniProt P21589 27-317).
T3 construct: Biotinylated and captured on streptavidin in the ELISA
T3 sequence: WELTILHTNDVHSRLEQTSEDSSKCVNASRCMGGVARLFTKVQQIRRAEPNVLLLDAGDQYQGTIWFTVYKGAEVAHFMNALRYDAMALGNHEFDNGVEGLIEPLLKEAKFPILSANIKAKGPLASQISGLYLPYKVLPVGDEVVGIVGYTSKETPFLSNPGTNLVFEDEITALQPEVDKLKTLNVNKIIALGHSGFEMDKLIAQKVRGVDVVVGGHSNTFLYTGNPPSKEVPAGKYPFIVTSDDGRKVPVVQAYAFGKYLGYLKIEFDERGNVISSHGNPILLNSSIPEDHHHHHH
On the procedure:
as §1, §2

The next test addresses T4, CD73-ND-V144A (human, UniProt P21589 27-317).
T4 construct: Alanine mutant of CD73-ND
T4 sequence: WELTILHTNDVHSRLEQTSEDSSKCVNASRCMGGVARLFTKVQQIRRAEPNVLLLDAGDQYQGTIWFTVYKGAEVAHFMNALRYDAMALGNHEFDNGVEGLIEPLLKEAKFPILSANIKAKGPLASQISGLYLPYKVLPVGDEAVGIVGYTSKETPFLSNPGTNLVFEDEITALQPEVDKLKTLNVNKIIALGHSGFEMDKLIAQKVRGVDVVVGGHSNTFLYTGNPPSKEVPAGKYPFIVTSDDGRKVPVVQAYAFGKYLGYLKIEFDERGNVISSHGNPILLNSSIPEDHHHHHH
The protocol: as §1, §2

The target of the next test is T5, CD73-ND-E143A (human, UniProt P21589 27-317).
T5 construct: Alanine mutant of CD73-ND
T5 sequence: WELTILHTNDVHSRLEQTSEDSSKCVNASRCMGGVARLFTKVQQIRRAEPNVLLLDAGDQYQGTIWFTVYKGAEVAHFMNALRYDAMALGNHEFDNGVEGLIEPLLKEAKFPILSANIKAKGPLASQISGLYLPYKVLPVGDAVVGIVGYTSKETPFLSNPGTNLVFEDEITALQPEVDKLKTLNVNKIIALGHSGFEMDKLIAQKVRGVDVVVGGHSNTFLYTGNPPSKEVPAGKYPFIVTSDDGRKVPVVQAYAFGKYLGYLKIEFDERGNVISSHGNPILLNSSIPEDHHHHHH
The protocol:
as §1, §2

For the next test, the target named is T6, CD73-ND-L181A (human, UniProt P21589 27-317).
T6 construct: Alanine mutant of CD73-ND
T6 sequence: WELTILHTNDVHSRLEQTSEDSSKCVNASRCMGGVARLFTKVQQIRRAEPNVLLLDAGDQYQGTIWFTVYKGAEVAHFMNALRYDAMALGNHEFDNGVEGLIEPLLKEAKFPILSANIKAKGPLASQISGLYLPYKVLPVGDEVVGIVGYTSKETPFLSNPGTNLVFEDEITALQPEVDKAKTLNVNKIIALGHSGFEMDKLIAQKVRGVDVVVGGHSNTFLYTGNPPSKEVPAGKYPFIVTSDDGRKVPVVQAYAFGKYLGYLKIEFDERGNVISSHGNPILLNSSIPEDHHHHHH
The protocol: as §1, §2

A word on the EC50: it is the midpoint of the concentration-response curve.

B1: 48A11-HuV33 (antibody, human IgG4, V domains shown)
VH: QVQLVQSGAEVKKPGASVKVSCKASGYTFTSYWMHWVRQAPGQGLEWIGEINPSIGRTNYNEKFKSRVTLTRDTSTSTAYMELSSLRSEDTAVYYCARRVYGTMDYWGQGTLVTVSS
VL: DIQMTQSPSSLSASVGDRVTITCKASQDINSYLSWFQQKPGKSPKLLIYRANIWVDGVPSRFSGSGSGQDYTFTISSLQPEDIATYYCLQYDELYTFGQGTKVEIK
notes: Humanized
B1: the EC50 in the test with CD73-ND-K182A is 0.121 nM; with CD73-ND-N185A it was 0.188 nM; with CD73-ND-his it was 0.117 nM; with CD73-ND-V144A it was 0.29 nM; in the test with CD73-ND-E143A, 0.167 nM; in the test with CD73-ND-L181A, 0.226 nM.
